Assay results published in patent publication US20170298375, “CONTROL OF CELLULOSE BIOSYNTHESIS BY OVEREXPRESSION OF A TRANSCRIPTION FACTOR” (Board of Trustees of Michigan State University, published 2017).

B1: ProCesA8wt (dsDNA)
DNA 1: CTTATAGAAAGTTGGTGATTGAAAA
DNA 2: TTTTCAATCACCAACTTTCTATAAG
B2: ProCesA4wt (dsDNA)
DNA 1: TCACTCACAGTTTGGTACAACCTCA
DNA 2: TGAGGTTGTACCAAACTGTGAGTGA
B3: ProCesA7wt (dsDNA)
DNA 1: CAGAAAATTCACCTAATTAAGGACA
DNA 2: TGTCCTTAATTAGGTGAATTTTCTG

What was measured:
GST-MYB46 [1] = target: T1, GST-MYB46 (Arabidopsis thaliana, UniProt Q9LXV2 SEQ:1-280); assay: EMSA; labelled fragment stated as -525 to -358 in text; details: tags: GST fusion, E. coli Rosetta gami; label: 32P
Description: (§1) A GST-MYB46 fusion protein was first incubated with the wild type, double-stranded ³²P-labeled oligodeoxynucleotides with the wild type CESA4, CESA7 and CESA8 promoter sequences shown in FIG. 3A. The GST protein was used as control protein. Unlabeled competitor promoter oligonucleotides were then added the assays to generate the assay mixtures identified FIG. 3B, where the competitors were oligonucleotides with wild type and mutated CESA4, CESA7 and CESA8 promoter sequences shown in FIG. 3A. […] To generate the results shown FIG. 3B, each assay mixture was then subjected to an electrophoretic mobility shift assay (EMSA) by polyacrylamide gel electrophoresis (PAGE). […] The promoter regions used for the DNA probes in each experiment are indicated below the gel images. Competition for the protein-DNA binding was performed using 60× unlabeled probes. The free unbound DNA probes are indicated by the arrow.
(§2) DNA fragments for EMSA were obtained by PCR-amplification and labeled with [γ-³²P]ATP using T4 polynucleotide kinase (NEB). The end-labeled probes were purified with Microspin S-200 HR column (GE Healthcare). The labeled DNA fragments were incubated for 25 min with 50 ng of GST-MYB46 in a binding buffer [10 mM. Tris (pH 7.5), 50 mM KCl, 1 mM DTT, 2.5% glycerol, 5 mM MgCl₂, 100 μg/ml BSA, and 50 ng/μL poly(dI-dC)].

GST = GST (UniProt P08515 P08515:1-218); assay: EMSA; GST alone control; details: tags: GST alone control; label: 32P
Description: as §1, §2

GST-MYB46 [2] = target: T1, GST-MYB46; assay: EMSA; labelled fragment stated as -248 to -69 in text; 5 mM MgCl2, 50 mM KCl, pH 7.5; details: tags: GST fusion, E. coli Rosetta gami; label: 32P
Description: as §1, §2

GST-MYB46 [3] = target: T1, GST-MYB46; assay: EMSA; labelled fragment stated as -662 to -486 in text; details: tags: GST fusion, E. coli Rosetta gami; label: 32P
Description: as §1, §2

T1 sequence (Q9LXV2 whole entry, the tested form may be a part): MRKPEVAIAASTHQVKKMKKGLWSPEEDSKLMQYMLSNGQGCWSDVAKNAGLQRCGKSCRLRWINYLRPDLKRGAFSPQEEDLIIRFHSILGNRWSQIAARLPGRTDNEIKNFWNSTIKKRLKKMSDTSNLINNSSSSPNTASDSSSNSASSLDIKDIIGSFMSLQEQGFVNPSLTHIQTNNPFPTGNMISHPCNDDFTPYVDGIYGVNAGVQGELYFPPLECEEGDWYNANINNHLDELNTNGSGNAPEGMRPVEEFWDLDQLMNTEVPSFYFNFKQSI
Chain of GST (P08515 whole entry, one chain of several): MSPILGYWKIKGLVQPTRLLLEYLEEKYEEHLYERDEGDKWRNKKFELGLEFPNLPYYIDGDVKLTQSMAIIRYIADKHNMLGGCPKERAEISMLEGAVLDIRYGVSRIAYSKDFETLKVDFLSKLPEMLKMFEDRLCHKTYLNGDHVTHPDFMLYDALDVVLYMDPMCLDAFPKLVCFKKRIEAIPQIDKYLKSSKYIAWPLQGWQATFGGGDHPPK

Row | Binder | binding result (GST-MYB46 [1]) | binding result (GST) | binding result (GST-MYB46 [2]) | binding result (GST-MYB46 [3])
1 | B1 | binds | no binding |  | 
2 | B2 |  | no binding | binds | 
3 | B3 |  | no binding |  | binds
